Source: patent US20210347908A1 (ELPISCIENCE SUZHOU BIOPHARMA, published 2021)

Tests used:
[1] = target: T1, Fc tagged human SIRPα v1 ECD recombinant protein (human, UniProt P78324 31-370); test: ELISA
T1 construct: range 1-370; cloned range M1-R370 includes the signal peptide; also called hSIRPα V1; not shown: human IgG Fc region (hFc) of the pCPC vector
Procedure: (§1) Binding specificity of the purified hybridoma antibodies against SIRP family members was detected by ELISA assay using recombinant proteins of Fc tagged human SIRPα v1 ECD, human SIRPα v2 ECD, human SIRPβ ECD and human SIRPγ ECD. Briefly the antibodies were incubated with ELISA microplate coated antigens at 37° C. for 1 hour. After washing, horseradish peroxidase (HRP) labeled anti-mouse or anti-human IgG 2nd Ab (Sigma) was added and incubated at 37° C. for 1 hour. Then, 100 μl/well of TMB solution (Biotechnology) was added. After incubation for 15 minutes at room temperature, the reaction was stopped by the addition of 50 μl of 1N HCl. OD 450 nm was read and EC₅₀ was calculated. Other than 060 and HEFLB, all of the antibodies as tested can bind with both human SIRPα v1 and SIRPα v2. 060 and HEFLB can bind with human SIRPα v1 but not v2. Other than 055, all of the antibodies as tested can bind with human SIRPβ. In comparison with other known anti-SIRPα antibodies, only 022, 035 and 050 can bind with human SIRPγ weakly.

[2] = target: T2, Fc tagged human SIRPα v2 ECD recombinant protein (human); test: ELISA
T2 construct: range 1-369; cloned range M1-R369 includes the signal peptide; also called hSIRPα V2
Procedure: as §1

[3] = target: T3, Fc tagged human SIRPβ ECD recombinant protein (human, UniProt O00241 30-371); test: ELISA
T3 construct: range 1-371; cloned range includes the signal peptide; also called hSIRPβ; not shown: human IgG Fc region (hFc) of the pCPC vector
T3 sequence (O00241 30-371 limits assumed, form in doubt): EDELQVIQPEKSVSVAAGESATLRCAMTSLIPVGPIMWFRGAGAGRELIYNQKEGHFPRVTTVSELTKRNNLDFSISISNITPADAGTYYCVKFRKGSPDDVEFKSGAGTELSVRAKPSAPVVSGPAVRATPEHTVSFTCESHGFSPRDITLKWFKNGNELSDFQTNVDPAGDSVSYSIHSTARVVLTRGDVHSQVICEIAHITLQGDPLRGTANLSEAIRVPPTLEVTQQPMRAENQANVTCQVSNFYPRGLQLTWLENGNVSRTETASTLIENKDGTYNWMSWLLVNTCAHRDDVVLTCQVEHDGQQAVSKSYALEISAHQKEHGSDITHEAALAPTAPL
Procedure: as §1

[4] = target: T4, full length cyno SIRPα stably expressed on CHOK1 cells (cynomolgus monkey, UniProt A0A2K5VYQ9 31-507); test: FACS on CHOK1 cells
T4 construct: whole, on cells; also called CHOK1-cyno SIRPα-2A2 cells; CHOK1-cyno SIRPα
T4 sequence: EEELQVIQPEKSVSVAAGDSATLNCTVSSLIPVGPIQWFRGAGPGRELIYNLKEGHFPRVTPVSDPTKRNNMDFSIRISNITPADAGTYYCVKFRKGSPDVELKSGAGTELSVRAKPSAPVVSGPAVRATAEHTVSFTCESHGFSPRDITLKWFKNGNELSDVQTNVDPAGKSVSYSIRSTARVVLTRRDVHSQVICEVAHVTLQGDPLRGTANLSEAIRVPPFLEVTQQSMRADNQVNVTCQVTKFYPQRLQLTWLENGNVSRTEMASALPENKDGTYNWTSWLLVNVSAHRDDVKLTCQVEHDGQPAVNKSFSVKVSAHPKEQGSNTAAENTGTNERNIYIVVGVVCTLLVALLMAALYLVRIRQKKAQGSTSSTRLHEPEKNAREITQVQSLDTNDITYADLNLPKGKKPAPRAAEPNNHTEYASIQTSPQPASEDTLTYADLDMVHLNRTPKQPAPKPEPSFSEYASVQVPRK

[5] = target: T5, biotin labeled soluble human SIRPα v1 ECD recombinant protein (human, UniProt P78324 31-373, biotin labeled); test: competitive ELISA; competitor 022
T5 construct: extracellular domain
T5 sequence (P78324 31-373): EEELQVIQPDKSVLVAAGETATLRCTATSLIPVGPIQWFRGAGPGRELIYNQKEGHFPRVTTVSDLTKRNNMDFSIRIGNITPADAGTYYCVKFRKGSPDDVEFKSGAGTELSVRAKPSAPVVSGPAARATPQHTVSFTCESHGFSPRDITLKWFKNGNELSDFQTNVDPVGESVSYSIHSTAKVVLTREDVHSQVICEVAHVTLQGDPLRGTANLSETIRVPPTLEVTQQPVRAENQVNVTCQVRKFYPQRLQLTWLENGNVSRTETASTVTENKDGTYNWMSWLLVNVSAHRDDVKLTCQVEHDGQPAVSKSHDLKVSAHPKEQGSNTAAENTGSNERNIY
Procedure: (§2) Competitive ELISA assay was used for epitope binning of 9 functional antibodies. Briefly excessive competitor antibody and biotin labeled soluble human SIRPα v1 ECD recombinant protein were co-incubated with ELISA microplate coated antibody. After washing, HRP-SA was added and incubated at 37° C. for 1 hour. Then, […] of TMB solution (Biotechnology) was added. After incubation for 15 minutes at room temperature, the reaction was stopped by the addition of […] of 1N HCl. OD 450 nm was read. Competition ratio was calculated. The antibodies that can compete each other for binding to SIRPα have the similar binding epitope.

[6] = target: T5, biotin labeled soluble human SIRPα v1 …; test: competitive ELISA; competitor 035
Procedure: as §2

[7] = target: T5, biotin labeled soluble human SIRPα v1 …; test: competitive ELISA; competitor 055
Procedure: as §2

[8] = target: T5, biotin labeled soluble human SIRPα v1 …; test: competitive ELISA; competitor KWAR23
Procedure: as §2

T1 sequence (P78324 31-370 limits assumed): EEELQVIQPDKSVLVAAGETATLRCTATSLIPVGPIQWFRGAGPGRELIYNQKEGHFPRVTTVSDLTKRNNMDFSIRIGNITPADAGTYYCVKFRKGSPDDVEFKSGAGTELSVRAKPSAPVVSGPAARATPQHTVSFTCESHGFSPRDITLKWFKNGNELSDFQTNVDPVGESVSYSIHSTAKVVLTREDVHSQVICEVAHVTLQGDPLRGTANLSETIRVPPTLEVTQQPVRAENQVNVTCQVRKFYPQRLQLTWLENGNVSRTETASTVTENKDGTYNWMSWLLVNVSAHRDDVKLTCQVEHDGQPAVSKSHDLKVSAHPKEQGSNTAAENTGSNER

B1: Antibody 001 (hybridoma antibody) (antibody, V domains shown)
VH: EVKLEESGGGLVQPGGSMKLSCVASGFTFRNYWMNWVRQSPERGLEWIAEISLKSNTYATHYAESVKGRFAISRDGSKSSFYLQMNDLRAEDTGIYYCTTFTKVVADWHLDVWGAGTTVTVSS
VL: DVLMTQTPLSLPVSLGDQASISCRSSQNIVHSNGNTYLEWYLQKPGQSPKLLIYKVSNRFSGVPDRFSGSGSGTDFTLRISRVEAEDLGVYYCFQGSHVPFTFGSGTKLEIK
notes: mouse hybridoma antibody
Work on B1 yielded an EC50 [1] of 0.07 nM, an EC50 [2] of 0.07 nM and an EC50 [3] of 0.12 nM. The “MFI at 10 nM” value [4] was 8030 MFI, the “% Competition” value [5] was -19% and the “% Competition” value [6] was 96%. The “% Competition” value [7] was 4% and the “% Competition” value [8] was 83%.

B2: Antibody 002 (hybridoma antibody) (antibody, V domains shown)
VH: EVKLEESGGGLVQPGGSMILSCVASGFTFRNYWMNWVRQSPERGLEWIAEITLKSNTYATHYAESVKGRFAISRDDSKSSFYLQMNDLRPEDTGIYYCTTFTKVVADWHLDVWGAGTTVTVSS
VL: DVLMTQTPLSLPVSLGDQASISCRSSQNIVHSNGNTYLEWYLQKPGQSPKLLIYKISNRFSGVPDRFSGSGSGTDFTLRISRVEAEDLGVYYCFQGSHVPFTFGSGTKLEIQ
notes: mouse hybridoma antibody
B2 showed an EC50 [1] of 0.11 nM, an EC50 [2] of 0.1 nM and an EC50 [3] of 0.16 nM. For the same binder, the “MFI at 10 nM” value [4] was 7540 MFI, the “% Competition” value [5] was -5% and the “% Competition” value [6] was 93%. The “% Competition” value [7] was -16% and the “% Competition” value [8] was 71%.

B3: Antibody 032 (hybridoma antibody) (antibody, V domains shown)
VH: EVRLEESGGGLVQPGGSMKLSCVVSGFTFRNYWMNWVRQSPERGLEWIAEITLKSNTYATHYAESVKGRFAISRDDSKSSFYLQMNDLRPEDTGIYYCTTFTKVVADWHLDVWGAGTTVTVSS
VL: DVLMTQTPLSLPVNLGDQASISCRSSQNIVHSNGNTYLEWYLQKPGQSPKLLIYKVSNRFSGVPDRFSGSGSGTDFTLRISRVEAEDLGVYYCFQGSHVPFTFGSGTKLEIK
notes: mouse hybridoma antibody
B3 was tested, and the EC50 [1] was 0.03 nM, the EC50 [2] was 0.04 nM and the EC50 [3] was 0.02 nM. The “MFI at 10 nM” value [4] was 6860 MFI, the “% Competition” value [5] was 1% and the “% Competition” value [6] was 91%. The “% Competition” value [7] was 3% and the “% Competition” value [8] was 69%.

B4: Antibody 035 (hybridoma antibody) (antibody, V domains shown)
VH: QIQLVQSGPELRKPGETVKISCKASGYSFTNYAMNWVKQAPGKVLKWMGFINTYTGEPTYADDFKGRFAFSLETSASTAYLQINNLKNEDTATYFCTRTRGYYDFDGGAFDYWGQGTSLTVSS
VL: DIVMTQSQKFMSTSIGDRVSVTCKASQNVGTHLAWYQQKPGQSPKALIFSASYRYIGVPDRFTGSGSGTDFTLTITNVQSEDLAEYFCQQYNTYPLTFGAGTKLELK
notes: mouse hybridoma antibody
B4 showed an EC50 [1] of 0.03 nM, an EC50 [2] of 0.04 nM and an EC50 [3] of 0.02 nM. For the same binder, the “MFI at 10 nM” value [4] was 8310 MFI, the “% Competition” value [5] was -1% and the “% Competition” value [6] was 93%. For the same binder, the “% Competition” value [7] was -1% and the “% Competition” value [8] was -6%.

B5: Antibody 022 (hybridoma antibody) (antibody, V domains shown)
VH: QIQLVQSGPELKKPGETVKISCKASGYTFTDYAMHWVKQAPGKGLKWMGWKNTETGESTYAEDFKGRFAFFLETSASTAYLQINNVKNEDTATYFCARGGYGSNYVMDYWGQGTSVIVSS
VL: DIQMTQSSSSFSVSLGDRVTITCKASEDIYNRLAWYQQKPGNAPRLLISGATSLETGVPSRFSGSGSGKDYTLSITSLQTEDVATYYCQQYWNSPRTFGGGTKLEIK
notes: mouse hybridoma antibody
Work on B5 yielded an EC50 [1] of 0.04 nM, an EC50 [2] of 0.04 nM and an EC50 [3] of 0.03 nM. For the same binder, the “MFI at 10 nM” value [4] was 6430 MFI, the “% Competition” value [5] was 81% and the “% Competition” value [6] was 0%. The “% Competition” value [7] was 1% and the “% Competition” value [8] was 1%.

B6: reference antibody 29-AM4-5 (antibody, V domains shown)
VH: EVQLVESGGGLVQPGGSLRLSCAASGFNISYYFIHWVRQAPGKGLEWVASVYSSFGYTYYADSVKGRFTISADTSKNTAYLQMNSLRAEDTAVYYCARFTFPGLFDGFFGAYLGSLDYWGQGTLVTVSS
VL: DIQMTQSPSSLSASVGDRVTITCRASQSVSSAVAWYQQKPGKAPKLLIYSASSLYSGVPSRFSGSRSGTDFTLTISSLQPEDFATYYCQQAVNWVGALVTFGQGTKVEIK
With B6 the EC50 [1] was 0.15 nM, the EC50 [2] was 0.2 nM and the EC50 [3] was 0.21 nM. The “MFI at 10 nM” value [4] was 37900 MFI, the “% Competition” value [5] was 8% and the “% Competition” value [6] was 98%. The “% Competition” value [7] was 0% and the “% Competition” value [8] was 93%.

B7: Antibody 060 (hybridoma antibody) (antibody, V domains shown)
VH: QVQLKESGPGLVAPSESLSITCTVSGFSLTNYDISWIRQSPGKGLEWLGVIWTGGDTNFNSAFMSRLSISKDKSKSQVFLKLNSLQTDDTAIYYCVRVQYFGGSYGPMDYWGQGISVTVSS
VL: DIQMTQASSYLSVSLGGRVTITCEASDHINDWLAWYQQTPGNAPRLLISGATSLETGVPSRFSGSGSGKDYTLSITSLQTEDIATYYCQQYWNTPLTFGAGTRLELK
notes: mouse hybridoma antibody
In the case of B7, the EC50 [1] is reported as 0.03 nM, the EC50 [3] is reported as 0.04 nM and the binding result [4] is reported as “no binding (tested: 10 nM)”. The “% Competition” value [5] was 10%, the “% Competition” value [6] was 3% and the “% Competition” value [7] was 7%. The “% Competition” value [8] was -4%.

B8: reference antibody HEFLB (antibody, V domains shown)
VH: EVQLVQSGAEVKKPGESLRISCKASGYSFTSYWVHWVRQMPGKGLEWMGNIDPSDSDTHYSPSFQGHVTLSVDKSISTAYLQLSSLKASDTAMYYCVRGGTGTLAYFAYWGQGTLVTVSS
VL: DVVMTQSPLSLPVTLGQPASISCRSSQSLVHSYGNTYLYWFQQRPGQSPRLLIYRVSNRFSGVPDRFSGSGSGTDFTLKISRVEAEDVGVYYCFQGTHVPYTFGGGTKVEIK
For B8, the EC50 [1] was 0.17 nM, the EC50 [3] was 0.17 nM and the binding result [4] was “no binding (tested: 10 nM)”. The “% Competition” value [5] was 4%, the “% Competition” value [6] was 51% and the “% Competition” value [7] was 1%. For the same binder, the “% Competition” value [8] was 94%.

B9: Antibody 074 (hybridoma antibody) (antibody, V domains shown)
VH: QVQLQQPRAELVKPGASVMLSCKASGYTFSSYWIHWVRQGPGQGLEWIGLIHPNSGNTDCSETFKNKATLTVDTSSSTAYMQLSSLASEDSAVYYCARDGASYDWFVHWGQGTLVTVSA
VL: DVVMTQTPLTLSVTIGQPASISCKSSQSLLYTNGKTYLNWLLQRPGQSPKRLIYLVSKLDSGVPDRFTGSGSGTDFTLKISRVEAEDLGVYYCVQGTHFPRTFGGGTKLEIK
notes: mouse hybridoma antibody
In the case of B9, the EC50 [1] is reported as 0.02 nM, the EC50 [2] is reported as 0.02 nM and the EC50 [3] is reported as 0.02 nM. The “MFI at 10 nM” value [4] was 14300 MFI, the “% Competition” value [5] was -5% and the “% Competition” value [6] was 10%. For the same binder, the “% Competition” value [7] was -17% and the “% Competition” value [8] was -14%.
